From PMC7116145 (Science (New York, N.Y.), 2020)
Values belong to the binder of their own block, whether it stands above or below them.

Experiments:
[1] = target: T1, mouse glutamate receptor A4 amino-terminal domain (mouse, UniProt Q9Z2W8 21-420); assay: SPR
T1 sequence (looked up): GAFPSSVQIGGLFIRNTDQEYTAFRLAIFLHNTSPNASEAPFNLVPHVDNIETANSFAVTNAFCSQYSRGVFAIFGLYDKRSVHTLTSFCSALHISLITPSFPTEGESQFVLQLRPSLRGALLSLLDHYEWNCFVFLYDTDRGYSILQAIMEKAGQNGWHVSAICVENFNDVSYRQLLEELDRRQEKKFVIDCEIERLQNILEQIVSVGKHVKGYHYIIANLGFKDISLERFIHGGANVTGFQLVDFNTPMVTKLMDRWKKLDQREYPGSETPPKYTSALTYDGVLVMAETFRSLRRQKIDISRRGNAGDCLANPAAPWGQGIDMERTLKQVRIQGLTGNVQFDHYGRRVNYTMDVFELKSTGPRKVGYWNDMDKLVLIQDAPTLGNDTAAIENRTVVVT

[2] = target: T2, human glutamate receptor D2 amino-terminal domain (human, UniProt O43424 24-440); assay: SPR
T2 sequence (looked up): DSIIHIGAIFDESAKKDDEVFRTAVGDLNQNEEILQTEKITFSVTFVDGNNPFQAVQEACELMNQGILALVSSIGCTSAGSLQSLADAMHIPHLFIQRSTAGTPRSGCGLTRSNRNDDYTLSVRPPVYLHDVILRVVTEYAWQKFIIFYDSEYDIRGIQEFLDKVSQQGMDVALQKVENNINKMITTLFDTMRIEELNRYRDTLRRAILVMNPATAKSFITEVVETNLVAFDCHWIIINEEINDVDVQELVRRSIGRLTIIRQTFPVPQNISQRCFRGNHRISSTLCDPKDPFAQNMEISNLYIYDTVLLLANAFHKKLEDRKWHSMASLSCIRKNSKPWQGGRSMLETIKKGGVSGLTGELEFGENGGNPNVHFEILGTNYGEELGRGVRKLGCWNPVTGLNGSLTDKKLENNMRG

Kd [1]: 11 ± 0.9 µM
B1: pentraxin domain of human neuronal pentraxin-1, biotinylated on a C-terminal Avitag (immobilised in SPR) (domain or fragment, UniProt Q15818 224-431, looked up)
chain: PGDKFQLTFPLRTNYMYAKVKKSLPEMYAFTVCMWLKSSATPGVGTPFSYAVPGQANELVLIEWGNNPMEILINDKVAKLPFVINDGKWHHICVTWTTRDGVWEAYQDGTQGGSGENLAPYHPIKPQGVLVLGQEQDTLGGGFDATQAFVGELAHFNIWDRKLTPGEVYNLATCSTKALSGNVIAWAESHIEIYGGATKWTFEACRQI
modifications: biotin on the Avitag (in vivo biotinylation by BirA)

Kd [2]: > 100 µM
B2: Cbln1, biotinylated on a C-terminal Avitag (immobilised in SPR) (natural protein, UniProt P23435 22-193, looked up)
chain: QNETEPIVLEGKCLVVCDSNPTSDPTGTALGISVRSGSAKVAFSAIRSTNHEPSEMSNRTMIIYFDQVLVNIGNNFDSERSTFIAPRKGIYSFNFHVVKVYNRQTIQVSLMLNGWPVISAFAGDQDVTREAASNGVLIQMEKGDRAYLKLERGNLMGGWKYSTFSGFLVFPL
modifications: biotin on the Avitag (in vivo biotinylation by BirA)
